Patent publication US9618524B2, “Method, composition, isolation and identification of a plaque particle and related biomarker” (Plaxgen Inc., priority 2012, dated 2017)

B1: Apolipoprotein C-II (protein)
chain: TQQPQQDEMPSPTFLTQVKESLSSYWESAKTAAQNLYEKTYLPAVDEKLRDLYSKSTAAMSTYTGIFTDQVLSVLKGEE
B2: Platelet basic protein (protein)
chain: SSTKGQTKRNLAKGKEESLDSDLYAELRCMCIKTTSGIHPKNIQSLEVIGKGTHCNQVEVIATLKDGRKICLDPDAPRIKKIVQKKLAGDESAD
B3: Serum amyloid A-4 protein (protein)
chain: ESWRSFFKEALQGVGDMGRAYWDIMISNHQNSNRYLYARGNYDAAQRGPGGVWAAKLISRSRVYLQGLIDCYLFGNSSTVLEDSKSNEKAEEWGRSGKDPDRFRPDGLPKKY
B4: Isoform 2 of N-acetylmuramoyl-L-alanine amidase (protein)
chain: SLPLLMDSVIQALAELEQKVPAAKTRHTASAWLMSAPNSGPHNRLYHFLLGAWSLNATELDPCPLSPELLGLTKEVARHDVREGKEYGVVLAPDGSTVAVEPLLAGLEAGLQGRRVINLPLDSMAAPWETGDTFPDVVAIAPDVRATSSPGLRDGSPDVTTADIGANTPDATKGCPDVQASLPDAKAKSPPTMVDSLLAVTLAGNLGLTFLRGSQTQSHPDLGTEGCWDQLSAPRTFTLLDPKASLLTMAFLNGALDGVILGDYLSRTPEPRPSLSHLLSQYYGAGVARDPGFRSNFRRQNGAALTSASILAQQVWGTLVLLQRLEPVHLQLQCMSQEQLAQVAANATKEFTEAFLGCPAIHPRCRWGAAPYRGRPKLLQLPLGFLYVHHTYVPAPPCTDFTRCAANMRSMQRYHQDTQGWGDIGYSFVVGSDGYVYEGRGWHWVGAHTLGHNSRGFGVAIVGNYTAALPTEAALRTVRDTLPSCAVRAGLLRPDYALLGHRQLVRTDCPGDALFDLLRTWPHFTAVSLRSLHYTARRPSVYTSSTRPLPPACNSCARTASARPPTSRRHVYSGNLGPAFAGHSAGNIPDPVTSAYAASAQPQTQPACPFPSS
B5: Complement C2 (protein)
chain: APSCPQNVNISGGTFTLSHGWAPGSLLTYSCPQGLYPSPASRLCKSSGQWQTPGATRSLSKAVCKPVRCPAPVSFENGIYTPRLGSYPVGGNVSFECEDGFILRGSPVRQCRPNGMWDGETAVCDNGAGHCPNPGISLGAVRTGFRFGHGDKVRYRCSSNLVLTGSSERECQGNGVWSGTEPICRQPYSYDFPEDVAPALGTSFSHMLGATNPTQKTKESLGRKIQIQRSGHLNLYLLLDCSQSVSENDFLIFKESASLMVDRIFSFEINVSVAIITFASEPKVLMSVLNDNSRDMTEVISSLENANYKDHENGTGTNTYAALNSVYLMMNNQMRLLGMETMAWQEIRHAIILLTDGKSNMGGSPKTAVDHIREILNINQKRNDYLDIYAIGVGKLDVDWRELNELGSKKDGERHAFILQDTKALHQVFEHMLDVSKLTDTICGVGNMSANASDQERTPWHVTIKPKSQETCRGALISDQWVLTAAHCFRDGNDHSLWRVNVGDPKSQWGKEFLIEKAVISPGFDVFAKKNQGILEFYGDDIALLKLAQKVKMSTHARPICLPCTMEANLALRRPQGSTCRDHENELLNKQSVPAHFVALNGSKLNINLKMGVEWTSCAEVVSQEKTMFPNLTDVREVVTDQFLCSGTQEDESPCKGESGGAVFLERRFRFFQVGLVSWGLYNPCLGSADKNSRKRAPRSKVPPPRDFHINLFRMQPWLRQHLGDVLNFLPL
B6: Desmoglein-1 (protein)
chain: EWIKFAAACREGEDNSKRNPIAKIHSDCAANQQVTYRISGVGIDQPPYGIFVINQKTGEINITSIVDREVTPFFIIYCRALNSMGQDLERPLELRVRVLDINDNPPVFSMATFAGQIEENSNANTLVMILNATDADEPNNLNSKIAFKIIRQEPSDSPMFIINRNTGEIRTMNNFLDREQYGQYALAVRGSDRDGGADGMSAECECNIKILDVNDNIPYMEQSSYTIEIQENTLNSNLLEIRVIDLDEEFSANWMAVIFFISGNEGNWFEIEMNERTNVGILKVVKPLDYEAMQSLQLSIGVRNKAEFHHSIMSQYKLKASAISVTVLNVIEGPVFRPGSKTYVVTGNMGSNDKVGDFVATDLDTGRPSTTVRYVMGNNPADLLAVDSRTGKLTLKNKVTKEQYNMLGGKYQGTILSIDDNLQRTCTGTININIQSFGNDDRTNTEPNTKITTNTGRQESTSSTNYDTSTTSTDSSQVYSSEPGNGAKDLLSDNVHFGPAGIGLLIMGFLVLGLVPFLMICCDCGGAPRSAAGFEPVPECSDGAIHSWAVEGPQPEPRDITTVIPQIPPDNANIIECIDNSGVYTNEYGGREMQDLGGGERMTGFELTEGVKTSGMPEICQEYSGTLRRNSMRECREGGLNMNFMESYFCQKAYAYADEDEGRPSNDCLLIYDIEGVGSPAGSVGCCSFIGEDLDDSFLDTLGPKFKKLADISLGKESYPDLDPSWPPQSTEPVCLPQETEPVVSGHPPISPHFGTTTVISESTYPSGPGVLHPKPILDPLGYGNVTVTESYTTSDTLKPSVHVHDNRPASNVVVTERVVGPISGADLHGMLEMPDLRDGSNVIVTERVIAPSSSLPTSLTIHHPRESSNVVVTERVIQPTSGMIGSLSMHPELANAHNVIVTERVVSGAGVTGISGTTGISGGIGSSGLVGTSMGAGSGALSGAGISGGGIGLSSLGGTASIGHMRSSSDHHFNQTIGSASPSTARSRITKYSTVQYSK
B7: Ig gamma-2 chain C region (protein)
chain: ASTKGPSVFPLAPCSRSTSESTAALGCLVKDYFPEPVTVSWNSGALTSGVHTFPAVLQSSGLYSLSSVVTVPSSNFGTQTYTCNVDHKPSNTKVDKTVERKCCVECPPCPAPPVAGPSVFLFPPKPKDTLMISRTPEVTCVVVDVSHEDPEVQFNWYVDGVEVHNAKTKPREEQFNSTFRVVSVLTVVHQDWLNGKEYKCKVSNKGLPAPIEKTISKTKGQPREPQVYTLPPSREEMTKNQVSLTCLVKGFYPSDISVEWESNGQPENNYKTTPPMLDSDGSFFLYSKLTVDKSRWQQGNVFSCSVMHEALHNHYTQKSLSLSPGK
B8: Ig lambda chain V-III region LOI (protein)
chain: VTSYVLTQPPSVSVAPGQTARITCGGNNIGSKSVHWYQQKPGQAPVLVVYDDSDRPSGIPERFSGSNSGNTATLTISRVEAGDEADYYCQVWDSSSDHPT
B9: Leucine-rich alpha-2-glycoprotein (protein)
chain: VTLSPKDCQVFRSDHGSSISCQPPAEIPGYLPADTVHLAVEFFNLTHLPANLLQGASKLQELHLSSNGLESLSPEFLRPVPQLRVLDLTRNALTGLPPGLFQASATLDTLVLKENQLEVLEVSWLHGLKALGHLDLSGNRLRKLPPGLLANFTLLRTLDLGENQLETLPPDLLRGPLQLERLHLEGNKLQVLGKDLLLPQPDLRYLFLNGNKLARVAAGAFQGLRQLDMLDLSNNSLASVPEGLWASLGQPNWDMRDGFDISGNPWICDQNLSDLYRWLQAQKDKMFSQNDTRCAGPEAVKGQTLLAVAKSQ

How the values were obtained:
Test in all cases: Mass spectroscopy proteomics, semi-quantitative binding affinity of serum proteins (plaqueproteome, Table 2)
Conditions in all cases: higher number = stronger affinity
[1] = biological target: T1, Abeta-42 plaque particles (Homo sapiens, UniProt P05067)
T1 construct: Abeta 1-42
In short: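 AD patient serum or plasma (50% in PBS) was incubated with Abeta-42 aggregates (30 μg) for 1 h at 37 °C, then stained with Thioflavin S for 30 min. Labeled particles were FACS-sorted, trypsin/Lys-C digested overnight and analyzed by MS/MS. Sequest searched human UniProt; Scaffold/Protein Prophet validated the identifications.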

[2] = system: High Density cholesterol (Chl Large) plaque particles; set-up: species or system human
In short: (§1)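 Serum or plasma from atherosclerotic subjects, diluted to 50% in PBS, was incubated with cholesterol aggregates (30 μg per 1 mL reaction) at 37° C for 1 hr. Small and large cholesterol plaque particles were sorted by flow cytometry gating, trypsin-digested and analysed by MS/MS against a human UniProt database.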

[3] = system: Low density cholesterol (Chl small) plaque particles; set-up: species or system human
In short: as §1

[4] = biological target: T2, alpha-synuclein plaque particles (Homo sapiens, UniProt P37840)
T2 construct: 140 amino acids polypeptide
In short: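 AD-subject plasma or serum (800 μL of 50%) mixed with 30 μg preformed alpha-synuclein aggregates for 1 h at 37 °C; Thioflavin S-positive particles isolated by flow sorting. After reduction, acrylamide alkylation and overnight tryptic digestion, serum proteins identified by MS/MS with Sequest and Scaffold.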

Tau plaque particles = system: Tau plaque particles; set-up: species or system human
In short: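 Synthetic Tau-74 and Tau-275 peptides (1 mg/mL PBS, 37° C, 2 h) aggregated; 30 μg aggregates incubated with 50% serum/plasma 1 h at 37° C, stained with Thioflavin S, and plaque particles sorted by flow cytometry. Bound proteins trypsin-digested and identified by MS/MS against human UniProt.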

Molecule | Semi-quantitative analysis of proteins binding to different plaque particles: Abeta-42 [1] | Semi-quantitative analysis of proteins binding to different plaque particles: Chl Large [2] | Semi-quantitative analysis of proteins binding to different plaque particles: Chl small [3] | Semi-quantitative analysis of proteins binding to different plaque particles: Synuclein [4] | Semi-quantitative analysis of proteins binding to different plaque particles: Tau (Tau plaque particles)
B1 | 0 | 0 | 1 | 1 | 0
B2 | 0 | 0 | 0 | 1 | 2
B3 | 2 | 1 | 1 | 1 | 4
B4 | 0 | 4 | 1 | 2 | 5
B5 | 0 | 0 | 1 | 0 | 0
B6 | 5 | 0 | 0 | 0 | 0
B7 | 11 | 12 | 14 | 10 | 11
B8 | 2 | 1 | 1 | 2 | 1
B9 | 2 | 2 | 3 | 2 | 1
